As a reminder, the stoichiometry N is a count of units in the complex or per binding partner.

From PMC11570472, “Activity and phosphatidylcholine transfer protein interactions of skeletal muscle thioesterase Them2 enable hepatic steatosis and insulin resistance” (The Journal of Biological Chemistry, 2024) come the findings set out here.

This data set concerns the molecule itself. The experiment in a line: SEC; purified recombinant protein (100 uM) on an analytical Superdex 75 10/300 column, 0.5 ml/min, UV absorbance at 280 nm. A general note: Size exclusion chromatography separates by hydrodynamic size, large species first.

B1: His-tagged WT mouse Thioesterase superfamily member 2 (Them2), purified recombinant (enzyme, UniProt Q9CQR4 1-140, looked up)
chain: MSSMTQNLREVMKVMFKVPGFDRVLEKVTLVSAAPEKLICEMKVEEQHTNKLGTLHGGLTATLVDSISTMALMCTERGAPGVSVDMNITYMSPAKIGEEIVITAHILKQGKTLAFASVDLTNKTTGKLIAQGRHTKHLGN
notes: also called WT Them2; acyl-CoA thioesterase 13
On to B1, for which the “stoichiometry N” value was 4.

B2: His-tagged N50A/D65A mouse Them2, purified recombinant (enzyme, UniProt Q9CQR4 1-140, looked up)
chain: MSSMTQNLREVMKVMFKVPGFDRVLEKVTLVSAAPEKLICEMKVEEQHTAKLGTLHGGLTATLVASISTMALMCTERGAPGVSVDMNITYMSPAKIGEEIVITAHILKQGKTLAFASVDLTNKTTGKLIAQGRHTKHLGN
notes: also called N50A/D65A Them2
On to B2, for which the “stoichiometry N” value came to 4.
